Measured values reported in patent US20250092147A1 (PEPMAB B V, published 2025).
Values joined by “and” are separate entries in the source; they are usually repeats but may differ in a detail not shown here. Identical values can stand only once.

How the values were obtained:
[1] = target: T1, human CCR7 (human, UniProt P32248 25-378, sulfated tyrosine residues in position Y32 and Y41 (as the filing describes the N-terminal extracellular domain)); assay: cell-based or functional assay
T1 sequence: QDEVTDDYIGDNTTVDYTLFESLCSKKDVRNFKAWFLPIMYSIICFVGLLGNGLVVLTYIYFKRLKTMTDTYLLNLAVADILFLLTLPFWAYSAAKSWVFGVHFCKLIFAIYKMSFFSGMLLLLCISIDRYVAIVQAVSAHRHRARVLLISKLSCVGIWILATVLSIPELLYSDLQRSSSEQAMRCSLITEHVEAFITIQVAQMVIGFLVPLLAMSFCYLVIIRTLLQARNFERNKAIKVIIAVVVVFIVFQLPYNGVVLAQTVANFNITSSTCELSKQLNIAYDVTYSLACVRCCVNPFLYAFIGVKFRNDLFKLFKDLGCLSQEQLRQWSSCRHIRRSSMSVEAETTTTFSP

[2] = target: T2, sulfated antigen SYM1899 (human, N-terminal pyroGlu; Z denotes sulfated Tyrosine (two Z in (pyroGlu)DEVTDDZIGDNTTVDZTLFESLCSKKDVRNK)); assay: ELISA, SYM1899 coated on the plate, 4 parameter logistics curve fit
T2 construct: also called immunogen SYM1899; synthetic antigen SYM1899
T2 peptide: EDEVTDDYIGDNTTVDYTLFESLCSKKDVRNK
Method: SEQ ID NO: 76). 100 ng/well SYM1899 was immobilized onto 96 well Maxisorp plates in coating buffer. Coating buffer was removed and 200 μl/well of block solution (3% w/v semi skim milk powder, PBS) was added and agitated 2 hours room temperature. Plate was washed six times with PBS-T (0.001% v/v Tween 20). […] 100 μl per well in triplicate of each antibody dilution was added to the plate in addition to a negative control of PBS and incubated 2 hours at room temperature with agitation. Plate was washed six times with PBS-T. 100 μl/well goat anti human HRP (Fc specific) (1:60,000 in PBS) was added and plates incubated for one hour agitated at room temperature. Plate was washed six times with PBS-T and once in PBS. 100 μl/well of TMB substrate solution was added and incubated at 37° C. for 10 minutes. 50 μl 1M HCl was added per well and the plate immediately read at 450 nm on a Biolise plate reader.

[3] = target: T1, human CCR7; assay: FACS (flow cytometry) on CLL and TPLL cells
Method: Binding of antibodies to membrane expressed CCR7 was determined by Fluorescence-activated cell sorting (FACS) by flow cytometry on three different chronic lymphocytic leukemia (CLL) samples and on three different T-cell Prolymphocytic leukaemia (TPLL) samples (data not shown). Appropriate controls (human isotype controls) were included to easily calculate the percentage of positive cells and/or the relative median fluorescence intensity (RMFI), obtained from the ratio MFI (sample)/MFI (control).

B1: humanized anti-CCR7 mAb 650 variant HC1 LC1 (antibody, V domains shown)
VH: EVQLLESGGGFVKPGGSLKLSCVVSGLTFRDFAMSWVRQTPEKRLVWVATISSGGFYTYYPDSVKGRFTISRDNVRNILYLQMSSLRSEDTAVYYCVRRAYRYDGTGDYSALDYWGTGTTVTVSS
VL: DIQMTQSPSSLSASVGDRVTITCRASQDIGPSLNWYQQKPGKAPKRLIYATSNLDSGVPSRFSGSGSGTDFTLTISSLQPEDFATYYCLQFASSPLTFGQGTKVEIK
IC50 of inhibition of CCL19 induced CCR7 receptor internalization (PathHunter active internalization assay) [1]: 0.415 µg/ml and 2.8 nM
IC50 of inhibition of CCL19 induced cAMP signalling (cAMP Secondary Messenger Pathway assay) [1]: 1.61 µg/ml and 10.7 nM
IC50 of inhibition of CCL19 induced β-arrestin recruitment (PathHunter) [1]: 9.56 µg/ml and 63.7 nM

B2: humanized anti-CCR7 mAb 650 variant HC3 LC3 (antibody, V domains shown)
VH: EVQLVESGGGLVQPGGSLRLSCAVSGLTFRDFAMSWVRQAPGKGLEWVSTISSGGFYTYYPDSVKGRFTISRDNSKNTLYLQMNSLRAEDTASYYCVRRAYRYDGTGDYSALDYWGQGTLVTVSS
VL: DIQMTQSPSSLSASVGDRVTITCRASQDIGPSLNWLQQKPGKAPKSLIYATSNLDSGVPSKFSGSGSGTDFSLTISSLQPEDFATYYCLQFASSPLTFGQGTRLEIK
notes: Human Fc; See the note on VK3 under HC1 LC3
EC50 [2]: > 100 nM

B3: control antibody 11-x (antibody, human IgG1, V domains shown)
VH: EVQLLESGGGFVKPGGSLKLSCVVSGLTFRDFAMSWVRQTPEKRLVWVATISSGGFYTYYPDSVKGRFTISRDNVRNILYLQMSSLRSEDTAVYYCARATTVVGTDFDYWGTGTTVTVSS
VL: DIQMTQSPSSLSASVGDRVTITCRASQDIGPSLNWYQQKPGKAPKRLIYATSNLDSGVPSRFSGSGSGTDFTLTISSLQPEDFATYYCLQFASSPLTFGQGTKVEIK
binding result [3]: no binding

B4: humanized anti-CCR7 mAb 650 variant HC1 LC3 (antibody, V domains shown)
VH: EVQLLESGGGFVKPGGSLKLSCVVSGLTFRDFAMSWVRQTPEKRLVWVATISSGGFYTYYPDSVKGRFTISRDNVRNILYLQMSSLRSEDTAVYYCVRRAYRYDGTGDYSALDYWGTGTTVTVSS
VL: DIQMTQSPSSLSASVGDRVTITCRASQDIGPSLNWLQQKPGKAPKSLIYATSNLDSGVPSKFSGSGSGTDFSLTISSLQPEDFATYYCLQFASSPLTFGQGTRLEIK
notes: Human Fc
EC50 [2]: > 100 nM

B5: humanized anti-CCR7 mAb 650 variant HC2 LC3 (antibody, V domains shown)
VH: EVQLVESGGGLVKPGGSLRLSCAAPGLTFRDFAMSWVRQAPGKGLEWVSTISSGGFYTYYPDSVKGRFTISRDNAANSLYLQMNSLRAEDTAVYYCVRRAYRYDGTGDYSALDYWGQGTLVTVSS
VL: DIQMTQSPSSLSASVGDRVTITCRASQDIGPSLNWLQQKPGKAPKSLIYATSNLDSGVPSKFSGSGSGTDFSLTISSLQPEDFATYYCLQFASSPLTFGQGTRLEIK
notes: as for B2
EC50 [2]: > 100 nM
